# Source: patent US20240109945A1 (published 2024)
# Changes are numbered by the printed parent chain. Numbers in names are those of the source. No end group written: not given here. M3N2 = N-glycan
# B1: Fbs1-2 (F177Y.E178R) (designed binder)
# chain: MGSSHHHHHHHHSSGENLYFQSHMASQQEGLVPEGSADEERDHWQQFYFLSKRRRNLLRNPCGEEDLEGWSDVEHGGDGWRVEELPGDNGVEFTQDDSVKKYFASSYRWCRKAQVIDLQAEGYWEELLDTTQPAIVVKDWYSGRTDAGSLYELTVRLLSENEDVLAEFATGQVAVPEDGSWMEISHTFIDYGPGVRFVRFEHGGQDSVYWKGWFGARVTNSSVWVEP
# B2: Fbs1-6 (E153R.N159G.F177Y.E178R) (designed binder)
# chain: B1 chain with E83R, N89G
# B3: Fbs1-7 (E154R.N159G.F177Y.E178R) (designed binder)
# chain: B1 chain with E84R, N89G
# B4: Fbs1-3 (N159G.F177Y.E178R) (designed binder)
# chain: B1 chain with N89G
# B5: Fbs1-8 (E153R.E154R.N159G.F177Y.E178R) (designed binder)
# chain: B1 chain with E83R, E84R, N89G
# B6: Fbs1-1 (WT) (designed binder)
# chain: B1 chain with Y107F, R108E
# B7: Variant Fbs1-7 (designed binder)
# chain: B1 chain with E84R, N89G
# B8: Variant Fbs1-6 (designed binder)
# chain: B1 chain with E83R, N89G
# B9: Variant Fbs1-1 (designed binder)
# chain: B1 chain with Y107F, R108E
# B10: Variant Fbs1-2 (designed binder)
# chain: B1 chain
# B11: Variant Fbs1-3 (designed binder)
# chain: B1 chain with N89G
# B12: Variant Fbs1-8 (designed binder)
# chain: B1 chain with E83R, E84R, N89G
# Biological target: G2PB
# Assay: BLI
row,Binder,Kd [nM]
1,B1,26800
2,B2,790
3,B3,1450
4,B4,540
5,B5,1190
6,B6,27500

# Biological target: T1, biotinylated N-glycopeptide A3Man (AVSHN(M3N2)ASLE) (also: biotinylated, position not given here)
# T1 peptide: AVSHN(M3N2)ASLE
# Assay: BLI
row,Binder,Kd [nM]
1,B7,860
2,B8,200
3,B9,4300
4,B10,610
5,B11,880
6,B12,1140
